Each block holds one substance with its values, some of them ahead of it.
How the values were obtained:
Test in all cases: FP competition, fluorescent NR2B probe
[1] = target: HIS-PDZ2 protein (PSD-95 PDZ2, residues 155-249, with tag …) (human) (UniProt P78352)
[2] = target: HIS-PDZ1 protein (PSD-95 PDZ1, residues 61-151, with tag …) (human) (UniProt P78352)
[3] = target: HIS-PDZ1-2 protein (PSD-95 PDZ1-2 tandem, residues 61-249, with tag …) (human) (UniProt P78352)

- fold impairment of affinity relative to peptide 1 [1]: > 25 fold
- fold impairment of affinity relative to peptide 1 [2]: > 25 fold
Substance: ESDV (8) with D-Glu instead of L-Glu (peptide)

- fold increase in Ki compared to peptide 1 [1]: > 30 fold
- fold increase in Ki compared to peptide 1 [2]: > 20 fold
Substance: SDV (9) (peptide)

- Ki [1]: 37 µM
- Ki [2]: 42 µM
Substance: TAV (49) (peptide)

Substance: Tat-NR2B (3) (peptide)
- Ki [1]: 4.4 µM
- Ki [3]: 9.8 µM
- Ki [2]: 14 µM
